B1: rAdML13 (ssRNA)
RNA: CCCUUUUUUUUCC
B2: 5'-4rU (ssRNA)
RNA: CCUUUUCCCCCCC
B3: 3'-4rU (ssRNA)
RNA: CCCCCCCUUUUCC
B4: rU13 (ssRNA)
RNA: UUUUUUUUUUUUU
B5: rC(4,5,8,10) (ssRNA)
RNA: CCCCCUUCUCUCC
B6: rC(7,9,10) (ssRNA)
RNA: CCCUUUCUCCUCC
B7: rC(5) (ssRNA)
RNA: CCCUCUUUUUUCC
B8: 3'-3rU (ssRNA)
RNA: CCCCCCCCUUUCC
B9: 5'-5rU (ssRNA)
RNA: CCUUUUUCCCCCC
B10: rC(7,9) (ssRNA)
RNA: CCCUUUCUCUUCC
B11: rU(3)C(4,6,9,10,11) (ssRNA)
RNA: CCUCUCUUCCCCC
B12: rC(7) (ssRNA)
RNA: CCCUUUCUUUUCC
B13: rC(9) (ssRNA)
RNA: CCCUUUUUCUUCC
B14: rC(10) (ssRNA)
RNA: CCCUUUUUUCUCC
B15: 3'-5rU (ssRNA)
RNA: CCCCCCUUUUUCC
B16: 5'-3rU (ssRNA)
RNA: CCUUUCCCCCCCC
B17: rC(7,10) (ssRNA)
RNA: CCCUUUCUUCUCC

target: T1, U2AF65 1,2 (RRM1-RRM2, wild-type linker) (Homo sapiens, UniProt P26368 148-336); experiment: SPR
T1 sequence (P26368 148-336, one chain of several): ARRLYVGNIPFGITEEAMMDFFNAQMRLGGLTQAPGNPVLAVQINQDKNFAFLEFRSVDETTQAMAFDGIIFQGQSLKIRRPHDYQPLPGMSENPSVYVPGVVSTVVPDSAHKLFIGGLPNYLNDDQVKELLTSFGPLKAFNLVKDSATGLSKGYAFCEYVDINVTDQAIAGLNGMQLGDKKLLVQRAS

Row | Binder | Kd
1 | B1 | 12.5 ± 1.6 µM

target: U2AF65 1,2 MUT (Homo sapiens, UniProt P26368 148-336, D293N;K329Q;L331K;Q333E); experiment: SPR
Sequence (P26368 148-336 D293N/K329Q/L331K/Q333E, one chain of several): as the sequence (P26368 148-336, one chain of several) above, with D146N, K182Q, L184K, Q186E counted along it

Row | Binder | Kd
2 | B2 | 14 ± 1.6 µM
3 | B3 | 12.5 ± 1.3 µM

target: T1, U2AF65 1,2 (RRM1-RRM2, wild-type linker); experiment: SPR; remark: another data set of the same source

Row | Binder | Kd
4 | B4 | 13.1 ± 0.9 µM
5 | B5 | 27.9 ± 1.3 µM
6 | B6 | 11.6 ± 0.8 µM
7 | B7 | 13.9 ± 1 µM
8 | B8 | 89.5 ± 3.9 µM
9 | B9 | 14.4 ± 0.8 µM
10 | B2 | 14.3 ± 0.6 µM
11 | B10 | 11 ± 0.6 µM
12 | B11 | 14.4 ± 1.1 µM
13 | B3 | 69.4 ± 3.1 µM
14 | B12 | 9.3 ± 0.4 µM
15 | B13 | 13.7 ± 1.3 µM
16 | B14 | 11.9 ± 0.8 µM
17 | B15 | 45.2 ± 3.4 µM
18 | B16 | 22 ± 0.9 µM
19 | B17 | 14.5 ± 0.9 µM
